Earlier results in publication PMC12188314.

Molecular target: Rab27A (Mus musculus) (UniProt Q9ERI2)
Chain of UniProt Q9ERI2 (Q9ERI2 2-221): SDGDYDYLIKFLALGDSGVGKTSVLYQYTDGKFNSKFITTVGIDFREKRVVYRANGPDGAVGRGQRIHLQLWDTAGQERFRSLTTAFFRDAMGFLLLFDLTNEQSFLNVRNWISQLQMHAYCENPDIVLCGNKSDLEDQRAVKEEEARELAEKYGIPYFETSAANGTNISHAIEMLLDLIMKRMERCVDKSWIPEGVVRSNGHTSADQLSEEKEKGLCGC

Kd: 13 nM
Substance: Slp2-a SHD (from UniProt Q99N50)
